Laboratory results: article PMC3954883

Molecular target: chimeric avidin mutant A/A2-B I109K
Assay: SDS-PAGE stability assay; 55 µM acetylated protein in pH 7 buffer, with or without biotin-5-fluorescein, 20 min at 20-100°C, sample buffer without SDS, 15% gel; control boiled with 2% SDS and 0.5% β-mercaptoethanol

chimeric avidin mutant A/A2-B I109K
stoichiometry N: 4
